Test results reported in patent US20260169005A1.

Key:
MSLN [1] = experiment: ELISA on MSLN at pH 6, column 25 nM
MSLN [2] = experiment: ELISA on MSLN at pH 7, column 25 nM
MSLN [3] = experiment: ELISA on MSLN at pH 6, column 100 nM
MSLN [4] = experiment: ELISA on MSLN at pH 7, column 100 nM
MSLN [5] = experiment: ELISA on MSLN at pH 6, column 6.25 nM
MSLN [6] = experiment: ELISA on MSLN at pH 7, column 6.25 nM
MSLN [7] = experiment: ELISA on MSLN at pH 6, column 1.5625 nM
MSLN [8] = experiment: ELISA on MSLN at pH 7, column 1.5625 nM

ELISA reading at 25nM, pH=6 (MSLN [1]): 0.0152 | ELISA reading at 25nM, pH=7 (MSLN [2]): 0.0354 | ELISA reading at 100nM, pH=6 (MSLN [3]): 0.0154 | ELISA reading at 100nM, pH=7 (MSLN [4]): 0.0239 | ELISA reading at 6.25nM, pH=6 (MSLN [5]): 0.0183 | ELISA reading at 6.25nM, pH=7 (MSLN [6]): 0.0318 | ELISA reading at 1.5625nM, pH=6 (MSLN [7]): 0.026 | ELISA reading at 1.5625nM, pH=7 (MSLN [8]): 0.0385
Substance: NC
